Reference: paper PMC7850899, “Nutrient transceptors physically interact with the yeast S6/protein kinase B homolog, Sch9, a TOR kinase target” (Biochemical Journal, 2021)

What was measured:
[1] = target: T1, Gap1 peptide 222-236 with V232 replaced by E (substitution scan) (S. cerevisiae, UniProt P19145 222-236, 232V replaced by E); assay: peptide or protein array; PEPperCHIP substitution scan of …, 300 peptides in triplicate; 100 or 500 µg/ml GST-Sch9 or GST, 16 h at 4°C; detected with anti-GST DyLight680; conditions: both partners purified
T1 construct: source: synthesised on the PEPperCHIP substitution peptide microarray (PEPperPRINT)
T1 peptide (looked up): GVKGYGEAEFEFSFI

[2] = target: T2, Gap1 peptide 222-236 with S234 replaced by E (substitution scan) (S. cerevisiae, UniProt P19145 222-236, S234E); assay: as above; conditions: both partners purified
T2 construct: source: synthesised on the PEPperCHIP substitution peptide microarray (PEPperPRINT)
T2 peptide (looked up): GVKGYGEAEFVFEFI

B1: GST-tagged Sch9 (GST-Sch9) (enzyme, S. cerevisiae, UniProt P11792 1-824, looked up)
chain: MMNFFTSKSSNQDTGFSSQHQHPNGQNNGNNNSSTAGNDNGYPCKLVSSGPCASSNNGALFTNFTLQTATPTTAISQDLYAMGTTGITSENALFQMKSMNNGISSVNNNNSNTPTIITTSQEETNAGNVHGDTGGNSLQNSEDDNFSSSSTTKCLLSSTSSLSINQREAAAAAYGPDTDIPRGKLEVTIIEARDLVTRSKDSQPYVVCTFESSEFISNGPESLGAINNNNNNNNNNQHNQNQHINNNNENTNPDAASQHHNNNSGWNGSQLPSIKEHLKKKPLYTHRSSSQLDQLNSCSSVTDPSKRSSNSSSGSSNGPKNDSSHPIWHHKTTFDVLGSHSELDISVYDAAHDHMFLGQVRLYPMIHNLAHASQHQWHSLKPRVIDEVVSGDILIKWTYKQTKKRHYGPQDFEVLRLLGKGTFGQVYQVKKKDTQRIYAMKVLSKKVIVKKNEIAHTIGERNILVTTASKSSPFIVGLKFSFQTPTDLYLVTDYMSGGELFWHLQKEGRFSEDRAKFYIAELVLALEHLHDNDIVYRDLKPENILLDANGNIALCDFGLSKADLKDRTNTFCGTTEYLAPELLLDETGYTKMVDFWSLGVLIFEMCCGWSPFFAENNQKMYQKIAFGKVKFPRDVLSQEGRSFVKGLLNRNPKHRLGAIDDGRELRAHPFFADIDWEALKQKKIPPPFKPHLVSETDTSNFDPEFTTASTSYMNKHQPMMTATPLSPAMQAKFAGFTFVDESAIDEHVNNNRKFLQNSYFMEPGSFIPGNPNLPPDEDVIDDDGDEDINDGFNQEKNMNNSHSQMDFDGDQHMDDEFVSGRFEI
notes: Sch9 protein kinase of yeast, expressed from pGEX-Sch9 (pGEX-4T-1-Sch9); Plasmid from J. Bergsma; also called GST-Sch9p; source: purified from E. coli (peptide microarrays); not shown: GST, N-terminal, kept
[1]
  fold change of spot intensity against the wild type peptide: 3 fold
[2]
  fold change of spot intensity against the wild type peptide: > 5 fold
